The values below come from patent publication US20240344028A1, “Serum-free media for producing adipocytes for animal consumption” (Mosa Meat B.V., priority 2021, published 2024).

This experiment relates to Adipogenic progenitor cells. Nature of the experiment: 2D adipogenic differentiation with DMAD components removed or at changed concentration. Particulars: single component removed from DMAD. It counts as cell-based, bovine. The procedure:
At 90% confluence, proliferated MSCs were trypsinized and seeded in a 96-well collagen coated cell culture plate at 30,000 cells/cm^2 in SF-PM. After 24 hours, adipogenesis was induced by changing SF-PM to DMAD (the serum-free differentiation medium as depicted in Example 1), which was maintained on the cells for a period of 12 days with media changes every 3-4 days. As a control differentiation medium (ctrl), DMEM/F12 with 3% FBS was supplemented with 4 conventional adipogenic inducers (IBMX (Sigma Aldrich-15879; 0.5 mM), dexamethasone (Sigma Aldrich-D4902; 10 μM), rosiglitazone (Sigma Aldrich-R2408; 5 μM) and insulin (Peprotech-10-365; 10 μM)). All 4 inducers were used for the first 3 days of culture and only insulin and rosiglitazone were used for the remaining 9 days.
Cells were fixed on days 6 and 12 with 4% PFA for 20 minutes at room temperature and washed twice with PBS. Cells were then stained with Hoechst (ThermoFisher 493/503, 1:2000) and BODIPY (Sigma Aldrich 345880, 1:1000) in PBS for 30 minutes. Adipogenic differentiation was quantified using the ImageXPress Pico High Content Analyser (HCA; Molecular devices). The parameters measured were total area of lipid, lipid droplet average area and percentage of positive cells. […]

B1: BMP4: Recombinant Human BMP-4 (E. coli derived), 120-05ET from Peprotech (protein, UniProt P12644 293-408, looked up)
Bone morphogenetic protein 4: SPKHHSQRARKKNKNCRRHSLYVDFSDVGWNDWIVAPPGYQAFYCHGDCPFPLADHLNSTNHAIVQTLVNSVNSSIPKACCVPTELSAISMLYLDEYDKVVLKNYQEMVVEGCGCR
Turning to B1, the “effect of removing the component from DMAD on percentage of positive cells and total lipid area” value is reported as “significantly decreased differentiation”.
